Measurements reported in publication PMC9482650, “Quantitative fragmentomics allow affinity mapping of interactomes” (Nature Communications, 2022).
Changes are numbered by the printed parent chain.

Tests used:
Assay in all cases: holdup assay
Design in all cases: key: below the threshold = too weak to quantify, mostly under pKd 3.1 to 4
Inadl_9, Q8NI35 = molecular target: Inadl_9, Q8NI35
SHANK1, Q9Y566 = molecular target: T1, SHANK1, Q9Y566
T1 sequence (Q9Y566 658-767, limits assumed, looked up): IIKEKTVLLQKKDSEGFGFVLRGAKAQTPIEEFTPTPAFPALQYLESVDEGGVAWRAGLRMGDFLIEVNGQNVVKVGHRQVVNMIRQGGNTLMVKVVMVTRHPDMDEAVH

TX1BP3, O14907 = molecular target: T2, TX1BP3, O14907
T2 sequence (O14907 10-122, limits assumed, looked up): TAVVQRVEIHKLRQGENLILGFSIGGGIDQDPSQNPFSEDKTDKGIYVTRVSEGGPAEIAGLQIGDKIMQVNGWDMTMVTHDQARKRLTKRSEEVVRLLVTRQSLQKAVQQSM

NHERF2_2, Q15599 = molecular target: NHERF2_2, Q15599
Chain of NHERF2_2, Q15599 (Q15599 142-238): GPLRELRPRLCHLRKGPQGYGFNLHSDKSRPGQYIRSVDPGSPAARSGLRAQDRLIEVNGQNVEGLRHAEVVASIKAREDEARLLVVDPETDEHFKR

NHERF4_4, Q86UT5 = molecular target: NHERF4_4, Q86UT5
Chain of NHERF4_4, Q86UT5 (Q86UT5 464-550): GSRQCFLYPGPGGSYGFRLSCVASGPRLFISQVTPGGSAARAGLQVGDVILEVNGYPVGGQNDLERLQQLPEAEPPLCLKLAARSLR

FRMPD2_1, Q68DX3 = molecular target: FRMPD2_1, Q68DX3
Chain of FRMPD2_1, Q68DX3 (Q68DX3 770-861): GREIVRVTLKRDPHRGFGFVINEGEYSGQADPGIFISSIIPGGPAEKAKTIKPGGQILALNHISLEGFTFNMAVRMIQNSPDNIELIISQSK

Inadl_10, Q8NI35 = molecular target: Inadl_10, Q8NI35
Chain of Inadl_10, Q8NI35 (Q8NI35 1673-1763): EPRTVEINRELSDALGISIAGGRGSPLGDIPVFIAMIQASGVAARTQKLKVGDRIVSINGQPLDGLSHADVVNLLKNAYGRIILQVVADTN

LNX1_1, Q8TBB1 = molecular target: LNX1_1, Q8TBB1
Chain of LNX1_1, Q8TBB1 (Q8TBB1 261-371): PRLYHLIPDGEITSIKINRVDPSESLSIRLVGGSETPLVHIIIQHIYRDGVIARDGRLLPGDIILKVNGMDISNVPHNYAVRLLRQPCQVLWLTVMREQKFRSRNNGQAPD

MPDZ_12, O75970 = molecular target: T3, MPDZ_12, O75970
T3 sequence (O75970 1857-1958, limits assumed, looked up): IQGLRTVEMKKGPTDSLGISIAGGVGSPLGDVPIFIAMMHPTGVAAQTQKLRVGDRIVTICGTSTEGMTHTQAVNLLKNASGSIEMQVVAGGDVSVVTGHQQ

Inadl_1, Q8NI35 = molecular target: Inadl_1, Q8NI35
Chain of Inadl_1, Q8NI35 (Q8NI35 113-229): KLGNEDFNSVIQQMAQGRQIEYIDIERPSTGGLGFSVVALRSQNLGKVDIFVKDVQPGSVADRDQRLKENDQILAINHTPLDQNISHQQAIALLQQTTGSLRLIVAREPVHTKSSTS

DLG3_1, Q92796 = molecular target: T4, DLG3_1, Q92796
T4 sequence (Q92796 125-227, limits assumed, looked up): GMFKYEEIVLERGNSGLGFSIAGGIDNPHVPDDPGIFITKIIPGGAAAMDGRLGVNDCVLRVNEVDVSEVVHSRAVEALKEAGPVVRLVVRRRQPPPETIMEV

LIN7B, Q9HAP6 = molecular target: T5, LIN7B, Q9HAP6
T5 sequence (Q9HAP6 88-185, limits assumed, looked up): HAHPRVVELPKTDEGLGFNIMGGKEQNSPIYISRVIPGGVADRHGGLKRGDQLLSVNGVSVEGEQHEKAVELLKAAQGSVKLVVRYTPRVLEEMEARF

GRID2IP_1, A4D2P6 = molecular target: GRID2IP_1, A4D2P6
Chain of GRID2IP_1, A4D2P6 (A4D2P6 1-87): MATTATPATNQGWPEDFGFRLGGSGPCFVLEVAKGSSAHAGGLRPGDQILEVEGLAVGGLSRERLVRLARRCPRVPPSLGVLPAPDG

MAST2, Q6P0Q8 = molecular target: MAST2, Q6P0Q8
Chain of MAST2, Q6P0Q8 (Q6P0Q8 1099-1202): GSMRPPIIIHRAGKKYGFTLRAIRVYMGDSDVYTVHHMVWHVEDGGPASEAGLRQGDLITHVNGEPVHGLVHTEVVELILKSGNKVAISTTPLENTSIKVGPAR

DLG5_1, Q8TDM6 = molecular target: DLG5_1, Q8TDM6
Chain of DLG5_1, Q8TDM6 (Q8TDM6 617-713): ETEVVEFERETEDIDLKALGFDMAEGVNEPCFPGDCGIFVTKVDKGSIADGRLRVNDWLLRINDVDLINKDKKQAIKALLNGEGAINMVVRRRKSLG

DLG1_2, Q12959 = molecular target: DLG1_2, Q12959
Chain of DLG1_2, Q12959 (Q12959 314-412): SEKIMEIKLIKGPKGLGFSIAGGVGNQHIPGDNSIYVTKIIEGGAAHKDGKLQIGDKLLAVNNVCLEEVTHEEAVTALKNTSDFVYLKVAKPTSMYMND

MAGI2_6, Q86UL8 = molecular target: MAGI2_6, Q86UL8
Chain of MAGI2_6, Q86UL8 (Q86UL8 1141-1229): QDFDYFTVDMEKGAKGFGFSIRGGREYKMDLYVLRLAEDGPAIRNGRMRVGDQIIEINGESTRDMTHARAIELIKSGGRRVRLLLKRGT

LIN7A, O14910 = molecular target: T6, LIN7A, O14910
T6 sequence (O14910 103-200, limits assumed, looked up): T5 sequence (Q9HAP6 88-185, limits assumed, looked up) with A2S, I20V, V35I, D42E, Q65H, Q77K, G78D, R89K

DVL3, Q92997 = molecular target: T7, DVL3, Q92997
T7 sequence (Q92997 244-331, limits assumed, looked up): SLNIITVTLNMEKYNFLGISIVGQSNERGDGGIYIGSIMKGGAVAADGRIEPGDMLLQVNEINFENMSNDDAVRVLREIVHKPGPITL

GOPC, Q9HD26 = molecular target: GOPC, Q9HD26
PTPN13_1, Q12923 = molecular target: T8, PTPN13_1, Q12923
T8 sequence (Q12923 1088-1188, limits assumed, looked up): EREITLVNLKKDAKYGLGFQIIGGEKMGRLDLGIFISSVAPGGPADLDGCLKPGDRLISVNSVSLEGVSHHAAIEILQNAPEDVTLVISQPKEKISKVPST

MAGI2_2, Q86UL8 = molecular target: MAGI2_2, Q86UL8
Chain of MAGI2_2, Q86UL8 (Q86UL8 410-522): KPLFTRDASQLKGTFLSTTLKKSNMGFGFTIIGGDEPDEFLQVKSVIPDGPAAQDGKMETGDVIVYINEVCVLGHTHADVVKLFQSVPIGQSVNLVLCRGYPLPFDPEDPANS

DLG3_3, Q92796 = molecular target: T9, DLG3_3, Q92796
T9 sequence (Q92796 374-475, limits assumed, looked up): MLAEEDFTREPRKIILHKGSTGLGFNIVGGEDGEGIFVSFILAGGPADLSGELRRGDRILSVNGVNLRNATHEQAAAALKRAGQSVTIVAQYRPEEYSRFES

PCLO, Q9Y6V0 = molecular target: T10, PCLO, Q9Y6V0
T10 sequence (Q9Y6V0 4491-4600, limits assumed, looked up): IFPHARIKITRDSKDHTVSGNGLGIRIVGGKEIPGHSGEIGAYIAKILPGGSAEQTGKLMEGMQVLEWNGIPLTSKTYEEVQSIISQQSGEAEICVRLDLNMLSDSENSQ

ARHGEF12, Q9NZN5-2 = molecular target: ARHGEF12, Q9NZN5-2
Chain of ARHGEF12, Q9NZN5-2 (Q9NZN5 other isoform, or with tags, fused parts or gaps): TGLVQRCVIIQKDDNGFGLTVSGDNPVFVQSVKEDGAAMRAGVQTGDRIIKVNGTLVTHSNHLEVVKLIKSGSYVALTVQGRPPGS

Inadl_5, Q8NI35 = molecular target: Inadl_5, Q8NI35
Chain of Inadl_5, Q8NI35 (Q8NI35 673-780): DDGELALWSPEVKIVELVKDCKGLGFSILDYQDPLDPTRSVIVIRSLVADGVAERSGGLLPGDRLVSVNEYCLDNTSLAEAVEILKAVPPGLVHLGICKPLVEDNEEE

GORASP2, Q9H8Y8 = molecular target: GORASP2, Q9H8Y8
GRASP, Q7Z6J2 = molecular target: GRASP, Q7Z6J2
Chain of GRASP, Q7Z6J2 (Q7Z6J2 96-193): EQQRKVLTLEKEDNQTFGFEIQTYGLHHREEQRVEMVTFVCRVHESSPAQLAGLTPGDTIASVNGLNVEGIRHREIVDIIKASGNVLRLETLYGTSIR

[1] = plain residues with an end cap or a label only (N-terminal biotin on a linker: ado-ado)
[2] = modified: phospho on T at position -2 from the C-terminal residue

Chain of Inadl_9, Q8NI35 (Q8NI35 1530-1615): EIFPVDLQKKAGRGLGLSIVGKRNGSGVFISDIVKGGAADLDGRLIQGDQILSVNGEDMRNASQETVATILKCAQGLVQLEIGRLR

Binder: SAGADSETHC [SLCO1B1, Q9Y6L6]
- pKd (Inadl_9, Q8NI35; [1]): below the threshold
- pKd (SHANK1, Q9Y566; [1]): below the threshold
- pKd (TX1BP3, O14907; [1]): below the threshold
- pKd (NHERF2_2, Q15599; [1]): 3.72
- pKd (NHERF4_4, Q86UT5; [1]): below the threshold
- pKd (FRMPD2_1, Q68DX3; [1]): below the threshold
- pKd (Inadl_10, Q8NI35; [1]): below the threshold
- pKd (LNX1_1, Q8TBB1; [1]): below the threshold
- pKd (MPDZ_12, O75970; [1]): below the threshold
- pKd (Inadl_1, Q8NI35; [1]): below the threshold
- pKd (DLG3_1, Q92796; [1]): below the threshold
- pKd (LIN7B, Q9HAP6; [1]): 3.69
- pKd (GRID2IP_1, A4D2P6; [1]): below the threshold
- pKd (MAST2, Q6P0Q8; [1]): 4.62
- pKd (DLG5_1, Q8TDM6; [1]): below the threshold
- pKd (DLG1_2, Q12959; [1]): below the threshold
- pKd (MAGI2_6, Q86UL8; [1]): below the threshold
- pKd (LIN7A, O14910; [1]): below the threshold
- pKd (DVL3, Q92997; [1]): below the threshold
- pKd (GOPC, Q9HD26; [1]): below the threshold
- pKd (PTPN13_1, Q12923; [1]): below the threshold
- pKd (MAGI2_2, Q86UL8; [1]): below the threshold
- pKd (DLG3_3, Q92796; [1]): below the threshold
- pKd (PCLO, Q9Y6V0; [1]): below the threshold
- pKd (ARHGEF12, Q9NZN5-2; [1]): below the threshold
- pKd (Inadl_5, Q8NI35; [1]): below the threshold
- pKd (GORASP2, Q9H8Y8; [1]): below the threshold
- pKd (GRASP, Q7Z6J2; [1]): below the threshold

Binder: SRSRRRETAL [HPV33-E6_-2P, P06427]
- pKd (Inadl_9, Q8NI35; [2]): below the threshold
- pKd (SHANK1, Q9Y566; [2]): below the threshold
- pKd (TX1BP3, O14907; [2]): below the threshold
- pKd (NHERF2_2, Q15599; [2]): below the threshold
- pKd (NHERF4_4, Q86UT5; [2]): below the threshold
- pKd (FRMPD2_1, Q68DX3; [2]): below the threshold
- pKd (Inadl_10, Q8NI35; [2]): below the threshold
- pKd (LNX1_1, Q8TBB1; [2]): below the threshold
- pKd (MPDZ_12, O75970; [2]): below the threshold
- pKd (Inadl_1, Q8NI35; [2]): below the threshold
- pKd (DLG3_1, Q92796; [2]): below the threshold
- pKd (LIN7B, Q9HAP6; [2]): below the threshold
- pKd (GRID2IP_1, A4D2P6; [2]): below the threshold
- pKd (MAST2, Q6P0Q8; [2]): 3.62
- pKd (DLG5_1, Q8TDM6; [2]): below the threshold
- pKd (DLG1_2, Q12959; [2]): below the threshold
- pKd (MAGI2_6, Q86UL8; [2]): below the threshold
- pKd (LIN7A, O14910; [2]): below the threshold
- pKd (DVL3, Q92997; [2]): below the threshold
- pKd (GOPC, Q9HD26; [2]): below the threshold
- pKd (PTPN13_1, Q12923; [2]): below the threshold
- pKd (MAGI2_2, Q86UL8; [2]): below the threshold
- pKd (DLG3_3, Q92796; [2]): below the threshold
- pKd (PCLO, Q9Y6V0; [2]): below the threshold
- pKd (ARHGEF12, Q9NZN5-2; [2]): below the threshold
- pKd (Inadl_5, Q8NI35; [2]): below the threshold
- pKd (GORASP2, Q9H8Y8; [2]): below the threshold
- pKd (GRASP, Q7Z6J2; [2]): below the threshold

Binder: DYSNLRETDI [ADRA1D, P25100]
- pKd (Inadl_9, Q8NI35; [1]): below the threshold
- pKd (SHANK1, Q9Y566; [1]): below the threshold
- pKd (TX1BP3, O14907; [1]): 4.51
- pKd (NHERF2_2, Q15599; [1]): below the threshold
- pKd (NHERF4_4, Q86UT5; [1]): below the threshold
- pKd (FRMPD2_1, Q68DX3; [1]): below the threshold
- pKd (Inadl_10, Q8NI35; [1]): below the threshold
- pKd (LNX1_1, Q8TBB1; [1]): 4.44
- pKd (MPDZ_12, O75970; [1]): below the threshold
- pKd (Inadl_1, Q8NI35; [1]): below the threshold
- pKd (DLG3_1, Q92796; [1]): 3.6
- pKd (LIN7B, Q9HAP6; [1]): 3.62
- pKd (GRID2IP_1, A4D2P6; [1]): below the threshold
- pKd (MAST2, Q6P0Q8; [1]): 5.22
- pKd (DLG5_1, Q8TDM6; [1]): 3.5
- pKd (DLG1_2, Q12959; [1]): 4.74
- pKd (MAGI2_6, Q86UL8; [1]): 4.31
- pKd (LIN7A, O14910; [1]): below the threshold
- pKd (DVL3, Q92997; [1]): below the threshold
- pKd (GOPC, Q9HD26; [1]): below the threshold
- pKd (PTPN13_1, Q12923; [1]): below the threshold
- pKd (MAGI2_2, Q86UL8; [1]): below the threshold
- pKd (DLG3_3, Q92796; [1]): below the threshold
- pKd (PCLO, Q9Y6V0; [1]): below the threshold
- pKd (ARHGEF12, Q9NZN5-2; [1]): 4.03
- pKd (Inadl_5, Q8NI35; [1]): below the threshold
- pKd (GORASP2, Q9H8Y8; [1]): below the threshold
- pKd (GRASP, Q7Z6J2; [1]): below the threshold

Binder: QLKSGRDSTV [TMEM178A, Q8NBL3]
- pKd (Inadl_9, Q8NI35; [1]): 3.52
- pKd (SHANK1, Q9Y566; [1]): below the threshold
- pKd (TX1BP3, O14907; [1]): 3.91
- pKd (NHERF2_2, Q15599; [1]): 3.55
- pKd (NHERF4_4, Q86UT5; [1]): 3.74
- pKd (FRMPD2_1, Q68DX3; [1]): below the threshold
- pKd (Inadl_10, Q8NI35; [1]): below the threshold
- pKd (LNX1_1, Q8TBB1; [1]): below the threshold
- pKd (MPDZ_12, O75970; [1]): below the threshold
- pKd (Inadl_1, Q8NI35; [1]): below the threshold
- pKd (DLG3_1, Q92796; [1]): 3.82
- pKd (LIN7B, Q9HAP6; [1]): below the threshold
- pKd (GRID2IP_1, A4D2P6; [1]): below the threshold
- pKd (MAST2, Q6P0Q8; [1]): 4.08
- pKd (DLG5_1, Q8TDM6; [1]): 3.83
- pKd (DLG1_2, Q12959; [1]): 4.64
- pKd (MAGI2_6, Q86UL8; [1]): 3.85
- pKd (LIN7A, O14910; [1]): below the threshold
- pKd (DVL3, Q92997; [1]): below the threshold
- pKd (GOPC, Q9HD26; [1]): 3.57
- pKd (PTPN13_1, Q12923; [1]): 3.57
- pKd (MAGI2_2, Q86UL8; [1]): 4
- pKd (DLG3_3, Q92796; [1]): 3.66
- pKd (PCLO, Q9Y6V0; [1]): below the threshold
- pKd (ARHGEF12, Q9NZN5-2; [1]): below the threshold
- pKd (Inadl_5, Q8NI35; [1]): 3.58
- pKd (GORASP2, Q9H8Y8; [1]): below the threshold
- pKd (GRASP, Q7Z6J2; [1]): 3.56
